Experimental data published in patent US20190328889A1.

What was measured:
[1] = target: Fc receptors on U937 cells (human; IFNγ-activated or non-activated) (human); test: flow cytometry competition on IFNγ-activated U937 cells; competitor 1 µM BDB; Nip228 at 0.001-5 µM
[2] = target: Fc receptors on U937 cells (human; IFNγ-activated or non-activated) (human); test: flow cytometry competition on IFNγ-activated U937 cells; competitor 1 µM cp33; Nip228 at 0.001-5 µM

Q: Which results are given for “control monoclonal human IgG1 (Nip228, MedImmune Ltd), unlabelled (antibody)”?
A: IgG1 concentration above which the peptide is displaced [1]: 10 nM; IgG1 concentration above which the peptide is displaced [2]: 10 nM
